Data taken from US7244430 (CRUCELL HOLLAND B V, dated 2007).

B1: SC04-325 (scFv)
scFv: QMQLVQSGAEVKKPGSSVKVSCKASGDTFSSYAISWVRQAPGQGLEWMGGIFGTASYAQKFQGRVTITADESTSTAYMELSSLRSEDTAVYYCARGGMATTPGLDYWGQGTLVTVSSGTGGSGGTGSGTGGSTDIQLTQSPDSLAVSLGERATINCKSSQSVLYSSNNKNYLAWYQQKPGQPPKLLIYWASTRESGVPDRFSGSGSGTDFTLTISSLQAEDVAVYYCQQYYSTPLTFGQGTKVEIKR
B2: SC04-361 (scFv)
scFv: EVQLVQSGAEVKKPGESLKISCKASGFSFSTYWIGWVRQMPGKGLEWMGIIYPADSDTRYSPSFQGQVTISADKSISTAYLQWSSLKASDTAMYYCARLRGPYYDFWNGYRETHDAFNVWGQGTMVTVSSGTGGSGGTGSGTGGSTDVVMTQSPDSLAVSLGERATINCKSSQNILDNSDNKNFLAWYQQKPGQPPKLLIYWASARESGVPDRFSGSGSGTDFTLTISSLQAEDVALYYCQQYYNTPITFGQGTRLEIKR
B3: SC04-353 (scFv)
scFv: EVQLVQSGGGVVQPGRSLRLSCAASGFTFSNYAMHWVRQAPGKGLEWVAVISYDGGNKYYADSVKGRFTMSRDNSKNTLYLQMNSLRAEDTAVYYCARDFWSGYSMVDSYYYYMDVWGKGTTVTVSSGTGGSGGTGSGTGGSTETTLTQSPGTLSLSPGERATLSCRASQSVSNTFLAWYQQKPGQAPRLLIYGASSRATGIPDRFSGSGSGTDFTLTISRLEPEDFAAYYCQQYGSSLTFGPGTKVDIKR
B4: SC04-374 (scFv)
scFv: QVTLKESGPTLVKPTQTLTLTCTFSGFSLSTSGVGVGWIRQPPGKALEWLAVIYWNDDKLYRPSLKSRLTITKDTSKNQVVLTMTKMDPVDTATYYCAHRHRYYDISGYYRLFSDAFDIWGQGTMVTVSSGTGGSGGTGSGTGGSTQSVVTQPPSVSGAPGQRVTISCTGSSSNIGAGYDVHWYQQLPGTAPKLLIYGNSNRPSGVPDRFSGSKSGTSASLAITGLQAEDEADYYCQSYDSSLSGSVFGGGTKLTVLG
B5: SC04-299 (scFv)
scFv: EVQLVETGGGVVQPGRSLRLSCAASGFTFSGYAMHWVRQAPGKGLDWVAVISYDGSEKYSADSVKGRFTISRDNSKNTLYLQMNSLRAEDTAVYYCAKESGGPIWYKYYGVDVWGQGTTVTVSSGTGGSGGTGSGTGGSTSYVLTQPPSLSAAPRQRVTISCSGSSSNIGNYGVNWYQQLPGKAPKLLIYYDDLLPSGVSDRFSGSKSGTSASLAISGLQSEDEGDYYCAAWDDTLSAWVFGGGTKLTVLG
B6: SC04-271 (scFv)
scFv: EVQLVETGAEVKKPGESLRISCKGSGYTFNNYWIGWVRQMPGKGLEWMGIIYPGDSDTRYSPSVQGHVTISADKSINTAYLQWSSLKASDTAVYYCARRPGYDYGFYYFDYWGQGTLVTVSSGTGGSGGTGSGTGGSTQSALTQPRSVSGSPGQSVTISCTGTSSDVGGYNYVSWYQHHPGKAPKLMIYDVSNRPLGVSNRFSGSKSGNTASLTISGLQAEDEADYYCSSYTSSSTYVFGTGTHLTVLS
B7: SC04-289 (scFv)
scFv: QMQLVQSGAEVKKPGESLRISCKGSGYSFTSNWITWVRQMPGKGLEWMGRIDPSDSYTNYSPSFQGHVTISADKSISTAYLQWSSLKASDTAMYYCARDVVGVGASDYYYYMDVWGKGTTVTVSSGTGGSGGTGSGTGGSTEIVLTQSPGTLSLSPGETATLSCRTSQSVSSSYLGWYQQKPGQAPRLLIYGASIRATGIPARFSGSGSGTEFTLTIDSLQSEDFAVYYCQQYNNWPPITFGQGTRLEIKR
B8: CR5080 (antibody, V domains shown)
VH: QVTLKESGPTLVKPTQTLTLTCTFSGFSLSTSGVGVGWIRQPPGKALEWLAVIYWNDDKLYRPSLKSRLTITKDTSKNQVVLTMTKMDPVDTATYYCAHRHRYYDISGYYRLFSDAFDIWGQGTMVTVSS
VL: QSVLTQPPSVSGAPGQRVTISCTGSSSNIGAGYDVHWYQQLPGTAPKLLIYGNSNRPSGVPDRFSGSKSGTSASLAITGLQAEDEADYYCQSYDSSLSGWAFGGGTKLTVLG
B9: CRM4374 (antibody)
heavy: QITLKESGPTLVKPTQTLTLTCTFSGFSLSTSGVGVGWIRQPPGKALEWLAVIYWNDDKLYRPSLKSRLTITKDTSKNQVVLTMTKMDPVDTATYYCAHRHRYYDISGYYRLFSDAFDIWGQGTMVTVSSASAPTLFPLVSCENSPSDTSSVAVGCLAQDFLPDSITFSWKYKNNSDISSTRGFPSVLRGGKYAATSQVLLPSKDVMQGTDEHVVCKVQHPNGNKEKNVPLPVIAELPPKVSVFVPPRDGFFGNPRKSKLICQATGFSPRQIQVSWLREGKQVGSGVTTDQVQAEAKESGPTTYKVTSTLTIKESDWLSQSMFTCRVDHRGLTFQQNASSMCVPDQDTAIRVFAIPPSFASIFLTKSTKLTCLVTDLTTYDSVTISWTRQNGEAVKTHTNISESHPNATFSAVGEASICEDDWNSGERFTCTVTHTDLPSPLKQTISRPKGVALHRPDVYLLPPAREQLNLRESATITCLVTGFSPADVFVQWMQRGQPLSPEKYVTSAPMPEPQAPGRYFAHSILTVSEEEWNTGETYTCVVAHEALPNRVTERTVDKSTGKPTLYNVSLVMSDTAGTCY
light: QSVLTQPPSVSGAPGQRVTISCTGSSSNIGAGYDVHWYQQLPGTAPKLLIYGNSNRPSGVPDRFSGSKSGTSASLAITGLQAEDEADYYCQSYDSSLSGSVFGGGTKLTVLGQPKAAPSVTLFPPSSEELQANKATLVCLISDFYPGAVTVAWKADSSPVKAGVETTTPSKQSNNKYAASSYLSLTPEQWKSHRSYSCQVTHEGSTVEKTVAPTECS
notes: also called IgM form of CR4374
B10: CR4374 (antibody)
heavy: not shown
light: QSVLTQPPSVSGAPGQRVTISCTGSSSNIGAGYDVHWYQQLPGTAPKLLIYGNSNRPSGVPDRFSGSKSGTSASLAITGLQAEDEADYYCQSYDSSLSGSVFGGGTKLTVLGQPKAAPSVTLFPPSSEELQANKATLVCLISDFYPGAVTVAWKADSSPVKAGVETTTPSKQSNNKYAASSYLSLTPEQWKSHRSYSCQVTHEGSTVEKTVAPTECS
notes: also called CR374
B11: SC04-311 (scFv)
scFv: EVQLVQSGGGVVQPGRSLRLSCVASGFTFSKDAMHWVRQAPGKGLEWVAVISYDGSDKHYADSVKGRVTISRDNSRKTLYLRMDSLRAEDTALYYCARGYNSGHYFDYWGQGTLITVSSGTGGSGGTGSGTGGSTQSVLTQPPSVSAAPGQKVTISCSGTSSNIGDNYVSWYQHLPGTAPKLLIYDNNKRPSGIPDRFSGSKSGTSATLGVTGLQTGDEADYYCGTWDSSLTAVVFGGGTKLTVLG
B12: SC04-283 (scFv)
scFv: EVQLVQSGAEVKKSGESLKISCKGSGYTFNTYWIGWVRQMPGKGLEWMGIIYPGDSDTIYSPSFQGQVTISADKSISTAYLQWSSLKASDSAMYYCARLTFRRGYSGSDSFLPPGDFDYWGQGTLVTVSSGTGGSGGTGSGTGGSTDIQMTQSPSTLSASVGDRVTITCRASQSISSWLAWYQQKPGKAPNLLIYAASSLQSGVPSRFSGSGSGTDFTLTISSLQPDDSATYYCQQYNTYPLTFGGGTKVEIKR

What was measured:
[1] = biological target: T1, recombinantly expressed purified soluble WNV E protein (strain 382-99) (West Nile virus strain 382-99, UniProt Q9Q6P4 291-696); experiment: phage ELISA, coated recombinant soluble WNV E protein
T1 construct: also called recombinant WNV-E protein; truncated E protein; not shown: Myc tag and His tag
T1 sequence: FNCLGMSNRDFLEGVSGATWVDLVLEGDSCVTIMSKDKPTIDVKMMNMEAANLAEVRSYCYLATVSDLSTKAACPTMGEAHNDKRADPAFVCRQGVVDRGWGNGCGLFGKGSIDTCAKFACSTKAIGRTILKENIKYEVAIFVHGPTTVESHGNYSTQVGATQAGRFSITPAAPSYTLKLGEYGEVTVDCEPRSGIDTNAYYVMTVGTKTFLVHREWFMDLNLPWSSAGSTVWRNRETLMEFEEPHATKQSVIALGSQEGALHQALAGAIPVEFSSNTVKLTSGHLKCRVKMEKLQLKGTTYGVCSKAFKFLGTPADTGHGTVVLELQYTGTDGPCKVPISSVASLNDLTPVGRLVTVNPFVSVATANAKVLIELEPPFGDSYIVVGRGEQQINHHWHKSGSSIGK

[2] = biological target: T1, recombinantly expressed purified …; experiment: as above; remark: listed apart in the source
[3] = biological target: T2, West Nile virus strain USA99b (strain 385-99) (West Nile virus strain 385-99 (USA99b)); experiment: phage ELISA, coated whole inactivated WNV
T2 construct: mature; also called WNV; WN virus

[4] = biological target: T3, mutant WNV-like particles K307E (West Nile virus strain 382-99, UniProt Q9Q6P4 291-791; Q9Q6P4 216-290); experiment: ELISA on mutant VLP
T3 construct: also called mutant K307E

[5] = biological target: T4, mutant WNV-like particles A365V (West Nile virus strain 382-99, UniProt Q9Q6P4 291-791; Q9Q6P4 216-290); experiment: ELISA on mutant VLP, normalized to wild-type VLP
T4 construct: also called mutant A365V

[6] = biological target: T5, WNV-like particles (wild-type VLP, strain 382-99 M and E proteins) (West Nile virus strain 382-99, UniProt Q9Q6P4 291-791; Q9Q6P4 216-290); experiment: titration of purified IgM on VLPs
T5 construct: also called West Nile virus-like particles; WT

[7] = biological target: T6, mutant WNV-like particles T332K (West Nile virus strain 382-99, UniProt Q9Q6P4 291-791; Q9Q6P4 216-290); experiment: ELISA on mutant VLP, normalized to wild-type VLP
T6 construct: also called mutant T332K

| Binder | OD 492 nm [1] [OD 492 nm] | OD 492 nm [3] [OD 492 nm] | also measured |
| --- | --- | --- | --- |
| B1 | 1.4 | – | – |
| B2 | 0.076 | – | binding result [2]: no binding |
| B3 | 0.099 | – | binding result [2]: no binding |
| B4 | 1.36 | – | – |
| B5 | – | 1.07 | – |
| B6 | 0.608 | 0.984 | – |
| B7 | 1.39 | 0.759 | – |
| B8 | – | – | binding result [4]: no binding; % of wild-type binding [5]: ~37% |
| B9 | – | – | binding result [6]: binds |
| B10 | – | – | binding result [4]: no binding; % of wild-type binding [7]: ~75% |
| B11 | 1.54 | 1.04 | – |
| B12 | 0.074 | 1.21 | – |
